In patent US20110201077:

System: recombinant streptokinase produced with the pET21b expression construct (double-mutant, plasmin-resistant, polyhistidine-tagged)

In the case of recombinant plasminogen, the “conversion of recombinant plasminogen to recombinant plasmin, time course on reducing SDS-PAGE, 100:1 mole ratio plasminogen:streptokinase” value is reported as “At t=18 hours into the reaction, nearly all of the recombinant plasminogen had been converted to recombinant plasmin”.
recombinant plasmin was tested, and the “streptokinase proteolysis followed by Western blot, 1:1 mole ratio (data not shown)” value was “a very stable streptokinase fragment was generated, even at t=18 hours into the reaction”.
